# Patent publication US20240336672A1 (INSTITUT PASTEUR, published 2024)
# B1: CB6 (parental IgG1 version) (antibody, V domains shown)
# VH: EVQLVESGGGLVQPGGSLRLSCAASGFTVSSNYMSWVRQAPGKGLEWVSVIYSGGSTFYADSVKGRFTISRDNSMNTLFLQMNSLRAEDTAVYYCARVLPMYGDYLDYWGQGTLVTVSS
# VL: not shown
# B2: Cv2.5179 (recombinant human IgG1) (antibody, V domains shown)
# VH: QVQLVQSGPEVKKPGTSVKVSCKASGFTFTSSAVQWVRQARGQRLEWIGWIVVGSGNTNYAQKFQERVTITRDMSTSTAYMELSSLRSEDTAVYYCAAPHCSSTSCYDAFDIWGQGTMVTVSS
# VL: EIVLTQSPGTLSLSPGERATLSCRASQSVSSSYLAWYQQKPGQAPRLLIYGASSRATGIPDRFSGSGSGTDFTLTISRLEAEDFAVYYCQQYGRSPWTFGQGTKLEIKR
# notes: also called Cv2.5179 IgG
# B3: CV2.1174 (antibody, V domains shown)
# VH: EVQLVESGPEVKKPGTSVKVSCKASGFTFTRSAMQWVRQARGQRLEWIGWIVVGSGNTNYAQKFQERVTITRDMSTSTAYMELSSLRSEDTAVYYCAARQDYYYYGMDVWGQGTTVTVSS
# VL: DIQMTQSPSSLSASVGDRVTITCRASQGMSNSLDWDQQKPGKAPKLLLYAASRLKSGVPSRFSGSGSGTDYTLTISSLQPEDFATYYCQQYYSDPPKTFGQGTKVEIK
# B4: LY-CoV555 (parental IgG1 version) (antibody, V domains shown)
# VH: QVQLVQSGAEVKKPGSSVKVSCKASGGTFSNYAISWVRQAPGQGLEWMGRIIPILGIANYAQKFQGRVTITADKSTSTAYMELSSLRSEDTAVYYCARGYYEARHYYYYYAMDVWGQGTAVTVSS
# VL: not shown
# B5: CV2.1388 (antibody)
# heavy chain: QVQLVQSGPEVKKPGTSVKVSCKASGFTFTSSAVQWVRQARGQRLEWIGWIVVGSGDTNYAQKFQERVTITRDMSTSTAYMELSSLRSEDTAVYYCATDRQAGSRTYYFPGEGWFDPWGQGTLVTVSS
# light chain: QSVLTQPPSVSAAPGQKVTISCSGSTTNIGNNYVSWYQRLPGTAPKLLIYDNNKRPSGIPDRFSGSKSGTSATLGITGLQTGDEADYYCGTWDSSLSGVVFRRRDQADRPR
# B6: Cv2.3132 (IgG) (antibody, V domains shown)
# VH: EVQLVESGGGLVKPGGSLRLSCAASGFTFSDYYMSWIRQAPGKGLEWVSYISSSGSVQYYADSVKGRFTISRDNAENSLYLQMNSLRAEDTAVYYCARYYYDSSGYWKRLDYWGQGTLVTVSS
# VL: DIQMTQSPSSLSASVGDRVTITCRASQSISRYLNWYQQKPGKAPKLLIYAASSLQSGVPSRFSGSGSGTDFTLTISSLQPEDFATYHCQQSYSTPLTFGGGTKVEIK
# What was measured:
# [1] = target: SARS-CoV-2 spike, Beta variant (B.1.351), on virus or pseudotyped particles (SARS-CoV-2); experiment: cell-based or functional assay
# [2] = target: SARS-CoV-2 spike, Gamma variant (P.1), on virus or pseudotyped particles (SARS-CoV-2); experiment: cell-based or functional assay
# [3] = target: T1, SARS-CoV-2 Spike ectodomain (tri-S), Wuhan (SARS-CoV-2, UniProt P0DTC2 14-1208); experiment: ELISA; parameters: unit not given beside the values
# [4] = target: SARS-CoV-2 RBD (B.1.1.7) domain (SARS-CoV-2); experiment: ELISA; parameters: unit not given beside the values
# [5] = target: SARS-CoV-2 RBD (B.1.351) domain (SARS-CoV-2); experiment: ELISA; parameters: unit not given beside the values
# [6] = target: SARS-CoV-2 RBD (P.1) domain (SARS-CoV-2); experiment: ELISA; parameters: unit not given beside the values
# [7] = target: T2, SARS-CoV-2 kappa variant B.1.617.1/3 RBD domain (SARS-CoV-2); experiment: ELISA; parameters: unit not given beside the values
# [8] = target: T3, SARS-CoV-2 delta variant B.1.617.2/3 RBD domain (SARS-CoV-2); experiment: ELISA; parameters: unit not given beside the values
# [9] = target: SARS-CoV-2 delta plus variant RBD (SARS-CoV-2); experiment: ELISA; parameters: unit not given beside the values
# [10] = target: SARS-CoV-2 RBD (B.1.351) domain (SARS-CoV-2); experiment: ELISA; parameters: unit not given beside the values; remark: listed apart in the source
# [11] = target: SARS-CoV-2 omicron variant B.1.1.529 RBD domain (SARS-CoV-2); experiment: ELISA; parameters: unit not given beside the values
# [12] = target: SARS-CoV-2 omicron variant B.1.1.529 Spike ectodomain (tri-S, HexaPro) (SARS-CoV-2, UniProt P0DTC2 14-1208); experiment: ELISA; parameters: unit not given beside the values
# [13] = target: T4, SARS-CoV-2 spike, Delta variant (B.1.617.2), on virus or pseudotyped particles (SARS-CoV-2); experiment: cell-based or functional assay
# [14] = target: SARS-CoV-2 RBD (B.1.1.7) domain (SARS-CoV-2); experiment: RBD-ACE2 competition ELISA; parameters: unit not given beside the values
# [15] = target: SARS-CoV-2 RBD (B.1.351) domain (SARS-CoV-2); experiment: RBD-ACE2 competition ELISA; parameters: unit not given beside the values
# [16] = target: SARS-CoV-2 RBD (P.1) domain (SARS-CoV-2); experiment: RBD-ACE2 competition ELISA; parameters: unit not given beside the values
# [17] = target: T2, SARS-CoV-2 kappa variant B.1.617.1/3 …; experiment: RBD-ACE2 competition ELISA; parameters: unit not given beside the values
# [18] = target: T3, SARS-CoV-2 delta variant B.1.617.2/3 …; experiment: RBD-ACE2 competition ELISA; parameters: unit not given beside the values
# [19] = target: SARS-CoV-2 delta plus variant RBD (SARS-CoV-2); experiment: RBD-ACE2 competition ELISA; parameters: unit not given beside the values
# [20] = target: T3, SARS-CoV-2 delta variant B.1.617.2/3 …; experiment: RBD-ACE2 competition ELISA
# [21] = target: T1, SARS-CoV-2 Spike ectodomain (tri-S), …; experiment: ELISA
# [22] = target: T4, SARS-CoV-2 spike, Delta variant …; experiment: cell-based or functional assay; remark: listed apart in the source
# [23] = target: T1, SARS-CoV-2 Spike ectodomain (tri-S), …; experiment: infrared immunoblot on heat-denatured tri-S
binder,measurement,setting,value
B1,"IC50, in vitro neutralisation",[1],> 25 nM
same,"IC50, in vitro neutralisation",[2],> 25 nM
B2,AUC (Binding),[3],12
same,AUC (Binding),[4],11
same,AUC (Binding),[5],11
same,AUC (Binding),[6],11
same,AUC (Binding),[7],12
same,AUC (Binding),[8],12
same,AUC (Binding),[9],12
same,AUC,[10],12
same,AUC,[11],2
same,AUC,[12],3
same,"IC50, S-Fuse neutralisation",[13],0.0052 µg/mL
same,AUC (Blocking),[14],64
same,AUC (Blocking),[15],49
same,AUC (Blocking),[16],50
same,AUC (Blocking),[17],114
same,AUC (Blocking),[18],115
same,AUC (Blocking),[19],144
same,IC50 (read off the curve),[20],~0.4 µg/mL
B3,binding result,[21],no binding (tested: 10 µg/ml)
B4,"IC50, in vitro neutralisation",[1],> 25 nM
same,"IC50, in vitro neutralisation",[2],> 25 nM
same,"IC50, in vitro neutralisation",[22],> 25 nM
B5,binding result,[21],no binding (tested: 10 µg/ml)
B6,binding result,[23],binds
